Reference: publication PMC11700592, “Noncoding RNA Terc-53 and hyaluronan receptor Hmmr regulate aging in mice” (Protein & Cell, 2024)

Target: T1, His-tagged Hmmr (mouse, UniProt Q00547 1-794)
T1 construct: Hmmr, mouse; It is not restated for the bacterial construct; also called His-Hmmr; purified Hmmr; source: bacteria BL21 (DE3), purified (Ni-NTA)
T1 sequence (looked up): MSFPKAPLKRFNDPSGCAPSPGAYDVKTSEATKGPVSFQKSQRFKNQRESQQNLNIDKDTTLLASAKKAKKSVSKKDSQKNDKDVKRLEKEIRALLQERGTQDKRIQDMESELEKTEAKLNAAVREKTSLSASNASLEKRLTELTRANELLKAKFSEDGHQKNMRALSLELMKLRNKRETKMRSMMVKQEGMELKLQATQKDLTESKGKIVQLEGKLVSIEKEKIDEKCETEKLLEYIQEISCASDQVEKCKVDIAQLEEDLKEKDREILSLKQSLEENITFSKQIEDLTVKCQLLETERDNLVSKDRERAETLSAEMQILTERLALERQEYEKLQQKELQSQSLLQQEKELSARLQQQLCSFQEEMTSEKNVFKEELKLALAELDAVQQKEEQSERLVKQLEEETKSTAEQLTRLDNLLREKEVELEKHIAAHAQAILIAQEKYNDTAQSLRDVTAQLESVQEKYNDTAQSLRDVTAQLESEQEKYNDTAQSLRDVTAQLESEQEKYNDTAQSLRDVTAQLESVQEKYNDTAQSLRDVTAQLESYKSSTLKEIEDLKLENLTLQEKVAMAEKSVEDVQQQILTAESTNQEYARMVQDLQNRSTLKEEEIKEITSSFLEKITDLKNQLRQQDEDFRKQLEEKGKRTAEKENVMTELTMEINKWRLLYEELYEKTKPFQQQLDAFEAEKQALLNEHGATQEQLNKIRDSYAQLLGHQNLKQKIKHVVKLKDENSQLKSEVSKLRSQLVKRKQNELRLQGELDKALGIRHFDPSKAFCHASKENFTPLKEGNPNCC
Experiment: co-IP; in vitro binding assay: purified His-tagged Hmmr and HA-tagged Trim25 mixed without RNA or with in vitro transcribed Terc-53, 5S rRNA, full-length Terc or Terc-53 mut; one sample with Terc-53 treated with RNase A; immunoprecipitated with His antibody, blot with HA antibody
Conditions: both partners purified

B1: HA-tagged Trim25 (natural protein, mouse, UniProt Q61510 1-634, looked up)
chain: MAELNPLAEELSCSVCLELFKEPVTTPCGHNFCMSCLDETWVVQGPPYRCPQCRKVYQVRPQLQKNTVMCAVVEQFLQAEQARTPVDDWTPPARFSASSAATQVACDHCLTEIAVKTCLVCMASFCQEHLRPHFDSPAFQDHPLQSPIRDLLRRKCTQHNRLRELFCPEHGECICHICLVEHKTCSPTTLSQASADLEYKLRNKLTIMHSHINGATKALEDVRSKQQCVQDSMKRKMEQLRQEYMEMKAVIDAAETSSLRKLKEEEKRVYGKFDTIYQVLVKKKSEMQKLKAEVELIMDKGDEFEFLEKAAKLQGESTKPVYIPKIDLDHDLIMGIYQGAADLKSELKHSIKKLQKKSEEHNGSGNKGDQTQSTFKPVQPSKKTIQEKKTKKTPVAPGPPSHFSPNKLPTFGAPGQSLDSKATSPDAAPKASAAQPDSVGVKAKVLENFLTKSRTELLEYFVKVIFDYNTAHNKVSLSNKYTTASVSDGLQHYRSHPQRFTYCSQVLGLHCYKNGIHYWEVELQKNNFCGVGICYGSMERQGPESRLGRNPNSWCVEWFNNKISAWHNNVEKTLPSTKATRVGVLLNCDHGFVIFFAVTEKVHLMYKFKVDFTEALYPAFWVFSAGTTLSICSK
notes: Trim25, mouse; also called HA-Trim25; purified Trim25; source: purified
binding result: binds
